Values quoted from earlier work in US20090317412A1, “Induction of an immune response against streptococcus pneumoniae polyaccharides” (priority 2004, published 2009).

Molecular target: T1, murine I-A^b molecules (Mus musculus, UniProt P14434+P14483)
T1 sequence (P14434 24-256): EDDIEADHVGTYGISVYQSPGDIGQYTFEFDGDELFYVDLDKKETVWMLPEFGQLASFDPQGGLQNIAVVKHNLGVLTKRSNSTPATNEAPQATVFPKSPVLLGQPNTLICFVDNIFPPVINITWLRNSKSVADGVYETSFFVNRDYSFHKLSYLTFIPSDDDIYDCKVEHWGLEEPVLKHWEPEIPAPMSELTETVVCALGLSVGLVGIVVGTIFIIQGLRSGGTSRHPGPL
T1 sequence (P14483 28-265): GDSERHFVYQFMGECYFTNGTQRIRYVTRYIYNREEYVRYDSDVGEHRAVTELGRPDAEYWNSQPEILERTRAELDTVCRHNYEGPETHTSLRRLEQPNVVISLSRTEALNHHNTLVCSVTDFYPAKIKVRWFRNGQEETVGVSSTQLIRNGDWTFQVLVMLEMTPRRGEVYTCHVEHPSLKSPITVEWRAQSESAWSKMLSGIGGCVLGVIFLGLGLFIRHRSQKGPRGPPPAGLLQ

Sequence: AKXVAAWTLKAAA [pan DR binding peptide]
- binding to murine I-A^b molecules: binds
